Source: patent US20240327526A1
Where a chain is given by its changes, count along the chain named. Blank lines part the entries; values can stand above or below the binder they belong to.

Assays:
ActRIIB-huFc (human) [1] = test: BIAcore
ActRIIB-huFc (human) [2] = test: KinExA
ActRIIB-huFc (human) [3] = test: binding affinity, method not stated

ActRIIB-huFc (human), sequence (chain, as listed by the source limits assumed, form in doubt): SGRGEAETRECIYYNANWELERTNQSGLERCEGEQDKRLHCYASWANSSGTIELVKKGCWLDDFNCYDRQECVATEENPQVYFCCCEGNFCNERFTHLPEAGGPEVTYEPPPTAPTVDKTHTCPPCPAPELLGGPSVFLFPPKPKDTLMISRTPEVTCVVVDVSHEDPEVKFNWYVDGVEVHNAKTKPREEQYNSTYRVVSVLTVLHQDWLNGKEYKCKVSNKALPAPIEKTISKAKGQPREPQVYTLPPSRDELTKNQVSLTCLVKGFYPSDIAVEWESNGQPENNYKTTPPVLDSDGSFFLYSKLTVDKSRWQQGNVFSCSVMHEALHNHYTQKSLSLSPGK

- Kd (ActRIIB-huFc (human) [1]): 1 pM
- Kd (ActRIIB-huFc (human) [2]): < 1 pM
- fold improvement of affinity over the parental molecule R31-1 (ActRIIB-huFc (human) [2]): 10 fold
B1: M43 (antibody, human IgG2, lambda, V domains shown)
VH: EVQLLESGGGLVQPGGSLRLSCAASGFTFRNSAMSWVRQAPGKGLEWVSGISVTGGSTFYTDSVKGRFTVSRDNSRNTLYLQMNSLRAEDTAVYYCAKVYYYSFFDYWGQGTLVTVSS
VL: QTVVTQEPSFSVSPGGTVTLTCGFNSGSVSTSYWPSWYQQTPGQAPRTLIYNTNTRSSGVPDRFSGSILGNKAALTITGAQADDESDYYCVLWMGSGIWVFGGGTKLTVLG

- Kd (ActRIIB-huFc (human) [3]): < 10 pM
- Kd (ActRIIB-huFc (human) [1]): 10 pM
B2: Anti-ActRIIB human IgG R31-1 (antibody, V domains shown)
VH: B1 VH with S32Y, F59Y, Y102S
VL: B1 VL with W34Y, W93Y
